In patent publication US20050025779A1 one finds IC50 of virus infectivity (neutralization), U87 CD4/CXCR4 cells and IC50 of virus infectivity (neutralization), U87 CD4/CCR5 cells data, which are given here for three substances.

Where only a bound is given, the exact number is not on record here.

Holding throughout (test): cell-based or functional assay
Test [1] addresses HIV-1 NL4-3 envelope glycoprotein, on pseudotyped virus (HIV-1).
Test [2] deals with HIV-1 JRCSF envelope glycoprotein, on pseudotyped virus (HIV-1).
Test [3] deals with amphotropic murine leukemia virus envelope protein, on pseudotyped virus (amphotropic murine leukemia virus).
Test [4] has as its target HIV-1 92HT594 envelope glycoprotein, on pseudotyped virus (HIV-1).

Take monoclonal antibody 2F5: the results for the IC50 of virus infectivity (neutralization), U87 CD4/CXCR4 cells in test [1], in test [3] and in test [4] were 0.477 µg/mL, more than 50 µg/mL and 0.748 µg/mL, respectively. In addition, the figures for the IC50 of virus infectivity (neutralization), U87 CD4/CCR5 cells in test [2], in test [3] and in test [4] were 2.1 µg/mL, more than 50 µg/mL and 0.857 µg/mL, respectively.
For monoclonal antibody 2G12, the results for the IC50 of virus infectivity (neutralization), U87 CD4/CXCR4 cells in test [1], in test [3] and in test [4] were 0.473 µg/mL, more than 50 µg/mL and 2.39 µg/mL, respectively. Moreover, the figures for the IC50 of virus infectivity (neutralization), U87 CD4/CCR5 cells in test [2], in test [3] and in test [4] were 0.764 µg/mL, more than 50 µg/mL and 1.94 µg/mL, respectively.
On to monoclonal antibody 4E10, for which the values for the IC50 of virus infectivity (neutralization), U87 CD4/CXCR4 cells in test [1], in test [3] and in test [4] were 1.42 µg/mL, more than 50 µg/mL and 2.67 µg/mL, respectively. Besides, the IC50 of virus infectivity (neutralization), U87 CD4/CCR5 cells in test [2] is 7.91 µg/mL; in test [3], more than 50 µg/mL; in test [4], 2.94 µg/mL.
